Measurements reported in US20240132859A1, “MODIFIED DEHALOGENASE WITH EXTENDED SURFACE LOOP REGIONS” (Promega Corporation, priority 2022, published 2024).
Changes are numbered by the printed parent chain. In names and notes the source's numbering stands.

B1: HaloTag-178-(L1-3)cpLgBiT+4 67/68 (E4D, Q42M, M106K, T144D)-179: SEQ ID NO: 93 (protein)
chain: GSEIGTGFPFDPHYVEVLGERMHYVDVGPRDGTPVLFLHGNPTSSYVWRNIIPHVAPTHRCIAPDLIGMGKSDKPDLGYFFDDHVRFMDAFIEALGLEEVVLVIHDWGSALGFHWAKRNPERVKGIAFMEFIRPIPTWDEWPEFARETFQAFRTTDVGRKLIIDQNVFIEGTLPMGVVGGSSADQMAQIEEVFKVVYPVDDHHFKVILPYGTLVIDGVTPNKLNYFGRPYEGIAVFDGKKITVTGTLWNGNKIIDERLIDPDGSMLFRVTINSGGTGGSGGTGGSMVFTLDDFVGDWEQTAAYNLDQVLEQGGVSSLLQNLAVSVTPIMRIVRSGENALKIDIHVIIPYEGLRPLTEVEMDHYREPFLNPVDREPLWRFPNELPIAGEPANIVALVEEYMDWLHQSPVPKLLFWGTPGVLIPPAEAARLAKSLPNCKAVDIGPGLNLLQEDNPDLIGSEIARWLSTLEISG
B2: HaloTag-178-(L1-3)cpLgBiT+4 67/68 (E4D, Q42M, M106K, T144D, R112H, V127T, K123E)- 179: SEQ ID NO: 106 (protein)
chain: B1 chain with R228H, K239E, V243T

Assays:
[1] = tested on: HeLa cells expressing HiBiT-tagged GAPDH; experiment: Complementation-based chimeras transfected into genome edited HeLa cells expressing HiBiT-tagged GAPDH: expression, brightness, BRET; assay type: cell-based
Description: FIG. 23 A-G. Characterization of transiently expressed complementation-based chimeras incorporating flexible linkers and LgBiT+4 circularly permuted at two alternative sites (i.e., 67/68 or 49/50). Constructs encoding the chimeras were transfected into genome edited HeLa cells expressing HiBiT-tagged GAPDH. Cells were evaluated for expression, brightness, and efficiency of intramolecular BRET to a bound TMR ligand. (A) Structure of the HALOTAG-cpLGBIT chimeras. (B) Expression levels. Lysates from cells labeled with 1 μM HaloTag-TMR ligand were resolved on SDS-PAGE and scanned on a fluorescent imager. Expression levels quantitated using Image J software were normalized to the expression of HaloTag178-cpLgBIT+4 67/68-179. (C) Total luminescence from cells treated with 20 μM fluorofurimazine. (D) Intramolecular BRET efficiencies for cells treated with 500 nM HaloTag-TMR ligand.

[2] = Intramolecular BRET efficiency of purified fusions and chimeras to a bound TMR ligand; assay type: biochemical; details: 6 nM chimeras complemented with 60 nM VS-HiBiT; compared with HT-178(L1-3)cpLgBiT+4 67/68-179
Source text: (§1) FIG. 9A-D. Characteristics of HaloTag-NLuc fusions and chimeras generated by insertion of circularly-permuted NanoLuc (cpNLuc), circularly-permuted thermostable NanoLuc (cptsNLuc), and circularly-permuted thermostable NanoLuc with a point mutation, F164C (cptsNLuc(F164C)) into loops 165 and 180. Fusion and chimeras were expressed in E. coli, purified, and compared for binding kinetics of a chloroalkane-TMR ligand, brightness of luminescence, and efficiency of intramolecular BRET to a bound TMR ligand. (A) Chimera structures (B) Binding kinetics of 2.5 nM chloroalkane-TMR to 20 nM fusions, and chimeras monitored via fluorescent polarization (C) Total luminescence for 6 nM fusions, and chimeras treated with 20 μM fluorofurimazine (D) Intramolecular BRET efficiencies for 6 nM fusions, and chimeras that were labeled with 5-fold molar excess of chloroalkane-TMR and treated with 20 μM fluorofurimazine.
(§2) FIG. 13A-B. Luminescence and BRET efficiencies of HaloTag-LgBiT fusions, and chimeras generated by insertion of LgBiT and circularly-permuted LgBiT (cpLgBiT) into loop 180. […]
(§3) FIG. 19 A-E. Biochemical characterization of chimeras generated by inserting a circularly permuted NanoLuc to HaloTag's loops 180 and 194/195. […] (C) Binding kinetics of 2.5 nM HaloTag-TMR ligand to 20 nM chimeras monitored via fluorescent polarization. […]

[3] = Total luminescence (brightness) of purified fusions and chimeras treated with fluorofurimazine; assay type: biochemical; details: 6 nM chimeras complemented with 60 nM VS-HiBiT; compared with HT-178(L1-3)cpLgBiT+4 67/68-179
Source text: as §1, §2, §3

[4] = tested on: VS-HiBiT peptide; experiment: Binding affinity of complementation-based chimeras to VS-HiBiT peptide; details: compared with HT-178(L1-3)cpLgBiT+4 67/68-179
Description: FIG. 22 A-I. Biochemical characterization of complementation-based chimeras incorporating flexible linkers and LgBiT+4 circularly permuted at two alternative sites (i.e., 67/68 or 49/50). (A) Structure of the HALOTAG-cpLGBIT chimeras. (B-C) Influence of flexible linkers on binding kinetics of 2.5 nM HaloTag-TMR ligand to 20 nM chimeras, which were complemented with 200 nM VS-HiBiT. (C-D) Influence of flexible linkers on binding affinity to a VS-HiBiT peptide. (E-F) Total luminescence for 6 nM chimeras complemented with 60 nM VS-HiBiT and treated with 20 μM fluorofurimazine. (G-I) Intramolecular BRET efficiencies for 6 nM chimeras complemented with 60 nM VS-HiBiT and covalently labeled with HaloTag-TMR ligand.
FIG. 25 A-E. Influence of additional LgTrip mutations on biochemical properties of the lead complementation-based chimera HaloTag178(L1-3)-cpLgBiT+4-179. Annotations of the additional mutations are based on a full length non disrupted NanoLuc protein (A) Structure of the HALOTAG-cpLGBIT chimeras (B) Influence of mutations on binding affinities to the VS-HiBiT peptide. (C) Influence of mutations on brightness and efficiency of intramolecular BRET to a bound TMR ligand for 6 nM chimeras complemented with 60 nM VS-HiBiT. (D-E) Binding kinetics of 2.5 nM HaloTag-TMR ligand to 20 nM or 80 nM chimeras, which were complemented with 200 nM or 800 nM VS-HiBiT, respectively.
FIG. 26 A-C. […]

[5] = mammalian cells, among the tested HALOTAG-cpLGBIT chimeras

| Molecule | expression ([1]; genome-edited HeLa cells expressing HiBiT-tagged-GAPDH) | BRET efficiency [1, 5] | brightness [1, 5] | BRET efficiency [2] | brightness [3] | binding affinity to VS-HiBiT [4] |
| --- | --- | --- | --- | --- | --- | --- |
| B1 | highest | highest | highest |  |  |  |
| B2 |  |  |  | similar | similar | significantly higher affinity |
